For one data set, the system named is microtubules and F-actin. As to the kind of experiment: TIRF microscopy of microtubule/F-actin cross-linking by myosin-1 tails. The note with it: 1 µM tail construct. It counts as biochemical.
Data set [1] concerns the target PI(3)P lipid vesicles (PolyPIPosomes). The data set can be described thus: Cosedimentation of myosin-1 tails with PI(3)P vesicles. The note with it: 500 nM tail; vesicles with 5% phosphoinositide; read-out: KD, tail binding to PI(3)P. How it is done:
(§1) Phospholipid binding assays were performed using commercially available lipid vesicles (PolyPIPosomes™, 200 nm diameter; Echelon Biosciences) composed of 95% PE + PC and 5% of the phosphoinositide of interest. Accessible phospholipid concentration was calculated as half of the total phospholipid content. Myosin-1 tail (500 nM) in co-sedimentation buffer (10 mM Tris, pH 7.5, 100 mM NaCl, 1 mM EGTA) was incubated with increasing concentrations of PolyPIPosomes™ (accessible PIP range: 10 nM to 10 mM) at room temperature for 30 min, followed by centrifugation at 25,000 g to separate bound and unbound fractions. Bound myosin-1 tail was quantified either by measuring fluorescence intensity of the supernatant (Jasco FP-6500 fluorimeter, excitation 514 nm) or by western blot of pellet and supernatant fractions using anti-GST antibody as indicated in the experiments. […] Microtubule binding assays employed 100 mM PIPES (pH 6.8), 2 mM MgCl2, 1 mM EGTA, 20 µM paclitaxel, and 1 mM GTP. […] Fluorescence intensities of pellet and supernatant fractions were quantified as described above. […]
(§2) Fig. 1 Myosin-1 tail binding to phosphoinositides. a Representative fluorescence spectra of supernatants from co-sedimentation assays with YFP-tagged myosin-1D tail and increasing concentrations of lipid vesicles containing PI(3,5)P₂. […]

The target of data set [2] is PI (unphosphorylated phosphatidylinositol) lipid vesicles. The data set can be described thus: Fluorescence-based cosedimentation of myosin-1 tails with lipid vesicles containing PI. The conditions noted are these: 500 nM tail, accessible phospholipid, read-out: KD, tail binding to PI. How it is done:
as §1, §2

Data set [3] addresses PI(4)P lipid vesicles (PolyPIPosomes). As to the kind of experiment: Cosedimentation of myosin-1 tails with PI(4)P vesicles. The note with it: 500 nM tail; vesicles with 5% phosphoinositide; read-out: KD, tail binding to PI(4)P. How it is done: as §1, §2
Data set [4] deals with PI(3,4,5)P3 lipid vesicles (PolyPIPosomes). The data set can be described thus: Cosedimentation of myosin-1 tails with PI(3,4,5)P3 vesicles. The conditions noted are these: 500 nM tail; vesicles with 5% phosphoinositide; read-out: KD, tail binding to PI(3,4,5)P3. How it is done: as §1, §2
The test system of data set [5] is PI(3,4,5)P3 lipid vesicles. As to the kind of experiment: Competitive binding of myosin-1 tails to PI(3,4,5)P3 vesicles (western blot of supernatant and pellet). How it is done: Phospholipid binding assays were performed using commercially available lipid vesicles (PolyPIPosomes™, 200 nm diameter; Echelon Biosciences) composed of 95% PE + PC and 5% of the phosphoinositide of interest. Accessible phospholipid concentration was calculated as half of the total phospholipid content. Myosin-1 tail (500 nM) in co-sedimentation buffer (10 mM Tris, pH 7.5, 100 mM NaCl, 1 mM EGTA) was incubated with increasing concentrations of PolyPIPosomes™ (accessible PIP range: 10 nM to 10 mM) at room temperature for 30 min, followed by centrifugation at 25,000 g to separate bound and unbound fractions. Bound myosin-1 tail was quantified either by measuring fluorescence intensity of the supernatant (Jasco FP-6500 fluorimeter, excitation 514 nm) or by western blot of pellet and supernatant fractions using anti-GST antibody as indicated in the experiments. […] Microtubule binding assays employed 100 mM PIPES (pH 6.8), 2 mM MgCl2, 1 mM EGTA, 20 µM paclitaxel, and 1 mM GTP. […] Fluorescence intensities of pellet and supernatant fractions were quantified as described above.
To gain deeper insight into the binding specificity of the myosin tails, we conducted competition experiments in which two tail constructs were simultaneously present in the PIP-binding assay, allowing us to assess their ability to compete for binding to the same lipid species. We performed these experiments using PI(3,4,5)P₃ (PIP₃) as an exemplary lipid, first in the absence and then in the presence of a second tail isoform. Two tail pairs were tested: those of myosin-1B and myosin-1D, and those of myosin-1C and myosin-1D (Figs. 3a, c). […] These findings establish myosin-1D as the dominant binder of PIP₃, capable of outcompeting myosin-1B and myosin-1C for membrane association.
Fig. 3 Competitive binding of myosin-1 tails to PI(3,4,5)P₃. a, c Western blots of supernatant and pellet fractions from lipid vesicles containing PI(3,4,5)P₃ following incubation with 2 µM myosin-1B tail (~ 70 kDa) (a) or myosin-1C tail (~ 70 kDa) (c) in competition with myosin-1D tail (~ 100 kDa). The total accessible PI(3,4,5)P₃ concentration was maintained at 2 µM. b, d Dashed boxes indicate the fraction of myosin-1 tails bound to lipid vesicles in the absence of the other myosin isoform. Orange bars denote the fraction of bound myosin in the presence of the competing myosin TEXT PRINTED IN THE PICTURE: (b) myosin-1D: % myosin bound to PI(3,4,5)P3: 90%; % myosin bound to PI(3,4,5)P3: 86% | (b) myosin-1B: % myosin bound to PI(3,4,5)P3: 71%; % myosin bound to PI(3,4,5)P3: 32% | (d) myosin-1D: % myosin bound to PI(3,4,5)P3: 94%; % myosin bound to PI(3,4,5)P3: 85% | (d) myosin-1C: % myosin bound to PI(3,4,5)P3: 32%; % myosin bound to PI(3,4,5)P3: 9%

For data set [6], the target named is PI(3,4)P2 lipid vesicles (PolyPIPosomes). The data set can be described thus: Cosedimentation of myosin-1 tails with PI(3,4)P2 vesicles. The note with it: 500 nM tail; vesicles with 5% phosphoinositide; read-out: KD, tail binding to PI(3,4)P2. How it is done: as §1, §2
For data set [7], the system named is isolated nuclei from Dictyostelium cells. As to the kind of experiment: Binding of YFP-tagged myosin tail constructs to isolated nuclei, confocal microscopy. Also noted: species or system Dictyostelium discoideum. The conditions noted are these: 1 µM tail construct, 30 min.
A further data set deals with PC, PS lipid vesicles. The data set can be described thus: Cosedimentation of myosin-1 tails with lipid vesicles devoid of phosphoinositides. The conditions noted are these: 500 nM tail; vesicles without phosphoinositide; read-out: KD, tail binding to PC, PS. How it is done: as §1, §2
Data set [8] addresses PI(5)P lipid vesicles (PolyPIPosomes). The data set can be described thus: Cosedimentation of myosin-1 tails with PI(5)P vesicles. The conditions noted are these: 500 nM tail; vesicles with 5% phosphoinositide; read-out: KD, tail binding to PI(5)P. How it is done:
as §1, §2

Data set [9] concerns the target PI(3,5)P2 lipid vesicles (PolyPIPosomes). The data set can be described thus: Cosedimentation of myosin-1 tails with PI(3,5)P2 vesicles (fluorescence or immunoblot detection). The conditions noted are these: 500 nM tail; vesicles with 5% phosphoinositide; read-out: KD, tail binding to PI(3,5)P2. How it is done: Phospholipid binding assays were performed using commercially available lipid vesicles (PolyPIPosomes™, 200 nm diameter; Echelon Biosciences) composed of 95% PE + PC and 5% of the phosphoinositide of interest. Accessible phospholipid concentration was calculated as half of the total phospholipid content. Myosin-1 tail (500 nM) in co-sedimentation buffer (10 mM Tris, pH 7.5, 100 mM NaCl, 1 mM EGTA) was incubated with increasing concentrations of PolyPIPosomes™ (accessible PIP range: 10 nM to 10 mM) at room temperature for 30 min, followed by centrifugation at 25,000 g to separate bound and unbound fractions. Bound myosin-1 tail was quantified either by measuring fluorescence intensity of the supernatant (Jasco FP-6500 fluorimeter, excitation 514 nm) or by western blot of pellet and supernatant fractions using anti-GST antibody as indicated in the experiments. […] Fluorescence intensities of pellet and supernatant fractions were quantified as described above. […]
as §2
Supplementary Fig. S2. Lipid dot blot assays and comparisons between fluorescence-based detection and immunoblot detection of myosin-1-PI(3,5)P2 interactions. […]

Data set [10] concerns the target PI(4,5)P2 lipid vesicles (PolyPIPosomes). As to the kind of experiment: Cosedimentation of myosin-1 tails with PI(4,5)P2 vesicles. The note with it: 500 nM tail; vesicles with 5% phosphoinositide; read-out: KD, tail binding to PI(4,5)P2. How it is done: as §1, §2
Data set [11] addresses microtubules. Also on record: method as in Rump et al., 2010. The conditions noted are these: ref Rump et al., 2010; read-out: KD, tail binding to microtubules; cited from earlier work.
Data set [12] relates to microtubules. Also on record: method as in PMID 21712373. The note with it: read-out: Inhibition of the cold-induced depolymerization of microtubules IC50; cited from earlier work.
The mark [13] stands for this setting: in presence of competing myosin-1D tail, 2 µM each, PI(3,4,5)P3 2 µM.
Setting [14] is: single tail 2 µM, absence of other isoform, accessible PI(3,4,5)P3 2 µM.

“Also recorded” adds a separate entry of the source.

B1: Myosin-1B-tail: Recombinant GST-/YFP-tagged tail construct of Dictyostelium discoideum myosin-1B (amino acids 717–1111) (protein)
chain: QRAQIAHMFKDKKERQRNSIDRKFTSDYIDFENQFGLQEAMQNAHKKERVVFADTVIKIDRRAKQKNYEMVLTDQALYFVEKSIKKKVLVHTLIRRVGLREIKGVSISTLSDNVIVFHLPEHDQVIENDKKTEIIIVLVEYFKAIGGGSLNVQFSDRINYTLKKGEQKEISFQKSEQCPTLVVKKGGKGLIGTIASGLPSSTDSTPKNYNPNSMSQASSRPAPQQSAGRGRGMPQGAGQPQPQQPQQQQRPMPQPQQGGGARPMPQPQQGGGARPMGAPQQGGAPQQGAGRQLPQPTQQGGAPGGRGAPMGRGAPGGGPAGAGGRPLPTVAKPAPQPSRPTAKALYDYDASSTDELSFKEGDIIFIVQKDNGGWTQGELKSGQKGWAPTNYLQYN
modifications: left off: GST, N-terminal, state not stated | YFP, C-terminal, kept
In the case of B1, the “cross-linking of microtubules and actin filaments” value with microtubules and F-actin was “not observed”. For the same molecule, the Kd in data set [1] was 8300 ± 1000 nM; in data set [2], 38200 ± 4000 nM; in [3], 2300 ± 400 nM; in data set [4], 1100 ± 200 nM; in data set [6], 2200 ± 400 nM; on PC, PS lipid vesicles, greater than 100000 nM. For the same molecule, the equilibrium dissociation constant (Kd) in data set [8] was found to be 7700 ± 600 nM. The “% myosin bound to PI(3,4,5)P3” value in [5] (setting [13]) is 32%; in data set [5] (setting [14]), roughly 71%. Also, the “association of YFP-tagged tail construct with isolated nuclei” value in [7] was “do not bind to nuclei; also recorded: did not associate with the nuclei”.

B2: Myosin-1C-tail: Recombinant GST-/YFP-tagged tail construct of Dictyostelium discoideum myosin-1C (protein)
chain: RYWHDMASRIKNAYRNYKAFQFECSNRIKNAFRNYKLYRQRCAQTIQGYFRAWKQASPFFDLRMQNEQLFQGRKERNRFSMISVRKYFGDYLDVRSQSYFLDAMAEGRNEDVIFSSKSQVMVHPILSANKLSPRFLIVTKQAIYLIKLKQKKNLATYLLDRRVPLAEVTSFSLSSLADNLLVIHTSTQFDVAVTTEFKTELVALINKQKGTTLAVNFGQSIQYFKKKGSNNTVTFLKDEMHKEIFLKKNQFHIASGLPASTTVAKVRKNPSQVSTPSKPIAKPVAKPMVAKPSGGSVIMKKPAPAAPPSGPPVMKKPAPTAPGGAPMMKKPAPAPGGAPMMKKPAPVPGGPAPGGSAIMKPAGGVSKPLPSPTGAPMMKKPAPTAPGGPAPAGAPTPMMKKPAGQPMMKPIAKPQPTPMKKPAAPPPQQYIALYEYDAMQPDELTFKENDVINLIKKVDADWWQGELVRTKQIGMLPSNYVQQI
modifications: left off: GST, end not stated, state not stated | YFP, end not stated, kept
notes: Recombinant GST-/YFP-tagged tail construct of Dictyostelium discoideum myosin-1C
As to B2, the Kd was 600 ± 100 nM in data set [9]; 1100 ± 200 nM in data set [10]; 80 ± 50 nM on microtubules [11]; 4000 ± 300 nM in [1]; 5400 ± 800 nM in data set [2]; 400 ± 100 nM in data set [3]. Besides, the Kd came out at 2500 ± 300 nM in data set [4]; 31500 ± 2700 nM at PC, PS lipid vesicles; 500 ± 100 nM in [8]. In addition, the “cross-linking of microtubules and actin filaments” value in the data set on microtubules and F-actin is listed as “cross-linking activity”. In addition, the “% myosin bound to PI(3,4,5)P3” value in [5] (setting [13]) is 9%; in [5] (setting [14]) it was roughly 32%. Besides, the “association of YFP-tagged tail construct with isolated nuclei” value in [7] is reported as “do not bind to nuclei; also recorded: did not associate with the nuclei”. Also, in the data set with microtubules [12], the IC50 is roughly 2 nM.

Values taken from publication PMC12676778, “Long-tailed class I myosins rely on tail-mediated phosphoinositide recognition for specific membrane recruitment” (Cell Communication and Signaling : CCS, 2025).
